Entries after “also recorded” stand apart in the source; their conditions may differ.
What was measured:
T0 duct prep = test: PNA-FITC FACS of dispersed duct cells; format: binding, rat; conditions: by FACS analysis
Description: PNA-FITC was diluted 1:250 in sterile wash buffer (Ca++ Mg++-free PBS containing 1% FBS). Dispersed live cells (approx. 2×10^6 cells) were spun down and resuspended in 100 μl of lectin and incubated for 30-45 min at 4° C. Cells were then washed twice with sterile wash buffer, resuspended in 2 ml of Iscoveís modified DMEM containing 5% FBS, Pen/Strep, 1 mM glutamine, and held on ice until run on the FACSVantage. Standard FACS procedures were used.

[1] = tested on: pancreatic duct epithelial cells; test: PNA-FITC lectin histochemistry of pancreas; format: binding, rat
Description: Paraffin sections of adult human pancreas, adult rat pancreas, embryonic rat pancreas, or cryosections of adult mouse pancreas were used. Alternatively, Time 0 duct or cultured duct preparations from 2 week old rat pancreas were examined, with or without paraformaldehyde fixation. PNA-FITC was used usually at 1:250 dilution in PBS or DMEM/HEPES medium and incubated for 1 hr to overnight at 4° C., then washed and mounted under VectaShield mounting medium containing DAPI. Cells stained without prior fixation were post-fixed before addition of mounting medium.

B1: PNA: plant lectin that binds to galactosyl (β-1,3) N-acetyl galactosamine (protein, UniProt P02872 24-273, looked up)
Galactose-binding lectin: AETVSFNFNSFSEGNPAINFQGDVTVLSNGNIQLTNLNKVNSVGRVLYAMPVRIWSSATGNVASFLTSFSFEMKDIKDYDPADGIIFFIAPEDTQIPAGSIGGGTLGVSDTKGAGHFVGVEFDTYSNSEYNDPPTDHVGIDVNSVDSVKTVPWNSVSGAVVKVTVIYDSSTKTLSVAVTNDNGDITTIAQVVDLKAKLPERVKFGFSASGSLGGRQIHLIRSWSFTSTLITTTRRSIDNNEKKIMNMASA
PNA-positive fraction of T0 duct prep (T0 duct prep): 5-15% | labelling of the major pancreatic duct (common bile duct, CBD) [1]: does not mark | labelling of blood vessels or stromal cells ([1]; by immunohistochemistry): does not mark | labelling of islet cells ([1]; rat): did NOT label; also recorded: does NOT mark | labelling of duct epithelial cells ([1]; rat pancreas): DID label; also recorded: marks the single layer of epithelial cells
